Data as given in publication PMC5823908, “Human mitochondrial pyruvate carrier 2 as an autonomous membrane transporter” (Scientific Reports, 2018).

Molecular target: the molecule itself
Experiment: cross-linking; purified MPC2-detergent (DDM) complex, about 10 μg protein, DSS 0.2-4 mM, 30 min, room temperature, 20 mM HEPES pH 8.0, 300 mM NaCl, 5% glycerol, 0.05 mM TCEP, 0.03% DDM

B1: purified human MPC2 after removal of GFP-10xHis (natural protein, UniProt O95563 1-127, looked up)
chain: MSAAGARGLRATYHRLLDKVELMLPEKLRPLYNHPAGPRTVFFWAPIMKWGLVCAGLADMARPAEKLSTAQSAVLMATGFIWSRYSLVIIPKNWSLFAVNFFVGAAGASQLFRIWRYNQELKAKAHK
notes: human mitochondrial pyruvate carrier 2 (MPC2), codon-optimized synthetic gene, NCBI NP_001137146.1; Residues of the PreScission site probably stay at the C-terminus after cleavage; also called purified MPC2; MPC2-detergent (DDM) complex; source: S. cerevisiae lacking endogenous MPC (3Δ); extracted with 1% C12E8, purified by Co-IMAC, PreScission Protease removal of GFP-10xHis, gel filtration in …
  stoichiometry N: 2
